Measurements reported in US20200123233A1 (published 2020).

Experiments:
[1] = biological target: T1, FTM-NN (membrane anchorless form of the Long fusion protein, 70 kDa) (human respiratory syncytial virus, …, UniProt P12568 26-524); test: SPR (Biacore), Ftm-NN protein immobilized on chip, Nanobody as analyte
T1 construct: domain: membrane anchorless form of the fusion protein

[2] = biological target: FTM-NN protein (membrane anchorless form of the Long fusion protein, 70 kDa) (human respiratory syncytial virus, …, UniProt P12568 26-524); test: binding ELISA, periplasmic extract on immobilised antigen
[3] = biological target: authentic influenza antigen of A/PR/8/34 (ATCC VR-1469), H1N1 (influenza A virus A/PR/8/34 (H1N1), UniProt P03452 18-565); test: ELISA on coated authentic influenza antigen
[4] = biological target: T2, FTM-NN protein (membrane anchorless form of the Long fusion protein of hRSV, 70 kDa) (human respiratory syncytial virus, …, UniProt P12568 26-524); test: competition ELISA, periplasmic extract diluted 1:100, competitor 101F Fab
[5] = biological target: T2, FTM-NN protein (membrane anchorless …); test: competition ELISA, periplasmic extract diluted 1:300, competitor 101F Fab
[6] = biological target: T2, FTM-NN protein (membrane anchorless …); test: ELISA, periplasmic extract on immobilised F protein; signal as fold over blank
[7] = biological target: T2, FTM-NN protein (membrane anchorless …); test: competition ELISA, periplasmic extract diluted 1:1000, competitor 101F Fab
[8] = biological target: F protein of RSV Long (RSV LONG M-2) (human respiratory syncytial virus, …, UniProt P12568 26-574); test: cell-based or functional assay
F protein of RSV A-2 = F protein of RSV A-2 (human respiratory syncytial virus, …, UniProt P03420 26-574); test: cell-based or functional assay

B1: NC41v06 (VHH)
VHH: EVQLLESGGGLVQPGGSLRLSCAASGGSLSNYVLGWFRQAPGKGREFVAAINWRDDITIGPPNVEGRFTISRDNAKNTLYLQMNSLRPEDTAVYYCGAGTPLNPGAYIYDWSYDYWGQGTLVTVSS
Q: Which Kd [1] does the source give for B1 here?
A: 2.5 nM

Q: What about the koff [1] of the same binder?
A: 0.0048 s⁻¹

Q: And the kon [1]?
A: 2e+06 M⁻¹ s⁻¹

B2: NC41 (VHH)
VHH: EVQLVESGGGLVQAGGSLSISCAASGGSLSNYVLGWFRQAPGKEREFVAAINWRGDITIGPPNVEGRFTISRDNAKNTGYLQMNSLAPDDTAVYYCGAGTPLNPGAYIYDWSYDYWGRGTQVTVSS
Q: Which results are given for B2?
A: Kd [1]: 4 nM; koff [1]: 0.0067 s⁻¹; kon [1]: 1.7e+06 M⁻¹ s⁻¹

B3: NC41v17 (VHH)
VHH: EVQLLESGGGLVQPGGSLRLSCAASGGSLSNYVLGWFRQAPGKGREFVAAINWRGDITIGPPNVEGRFTISRDNSKNTLYLQMNSLRPEDTAVYYCGAGTPLNPGAYIYDWSYDYWGQGTLVTVSS
Q: With B3 as the binder, how does the Kd [1] read?
A: 3.2 nM

Q: What about the koff [1] of the same binder?
A: 0.0059 s⁻¹

Q: What about the kon [1] of the same binder?
A: 1.9e+06 M⁻¹ s⁻¹

B4: PMP19C4 (VHH)
VHH: EVQLVESGGGLVQAGGSLRLSCAASGRSFSNYVLGWFRQAPGKEREFVAAISFRGDSAIGAPSVEGRFTISRDNAKNTGYLQMNSLVPDDTAVYYCGAGTPLNPGAYIYDWSYDYWGRGTQVTVSS
Q: Which “Binding RSV-A, Fold blanc” value [2] does the source give for B4 here?
A: 2.5 fold over blank

B5: PMP1G8 (VHH)
VHH: EVQLVESGGGSVQAGGSLRLSCAASGGSFNRFGMGWFRRAPGKERDFVAAINLSGDTTYYVDSVQGRFTISRDNANNIMYLQMNLLKPEDTADYYCAADPDPITAWKQSGAGMDYWGKGTQVTVSS
Q: With B5 as the binder, how does the “Binding RSV-A, Fold blanc” value [2] read?
A: 3.7 fold over blank

B6: IV131 (VHH)
VHH: QVQLQQSGGGLVQAGGSLRLSCAASGSGFSFNPMGWYRQAPGKQRELVASITSGGTTNYVDSVKGRFTISRGNAKNTVYLQMNSLKPEDTAVYYCAAEGPRRRGSTWYTDNYWGQGTQVTVSS
notes: yeast-produced
Q: Does B6 bind [3]?
A: no binding (tested: 10 µg/ml)

B7: PMP1A2 (VHH)
VHH: EVQLVESGGGLVQAGGSLRLSCAASERTFSYYAMGWFRQAPGKEREFVATISRSGEWIYYKDAMKGRFTISRDNANNAVYLQMNSLQPEDTAIYYCAADSLGGFRSASDYYNTNTYAYWGQGTQVTVSS
Q: How did the “% Inhibition 101F Fab (1:100 PE)” value [4] turn out when B7 was run?
A: 82%

Q: What about the “% Inhibition 101F Fab (1:300 PE)” value [5] of the same binder?
A: 27%

Q: What about the “Binding RSV-A, Fold blanc” value [6] of the same binder?
A: 4 fold over blank

Q: And the “% Inhibition 101F Fab (1:1000 PE)” value [7]?
A: 5%

B8: IV25 (VHH)
VHH: QVQLQQSGGGLVQSGGSLSLSCAASGITLNNRVVGWFRQAPGKEREFVGRIMWSVGDTFYARSVKGRFTISRDNAKNTMYLQMNALKPEDTAVYYCAAARDPDLYTGQYEYWGQGTQVTVSS
notes: yeast-produced
Q: Does B8 bind [3]?
A: no binding (tested: 10 µg/ml)

B9: IV133 (VHH)
VHH: QVQLQQSGGGLVQPGGSLRLSCAASSSGFSFNPMGWYRQAPGKQRELVATMTSGGTTNYADSVKGRFTISRDNAKTTVYLQMNSLKPEDTAVYYCNARGPRRATTGWITDDYWGQGTQVTVSS
notes: yeast-produced
Q: Does B9 bind [3]?
A: no binding (tested: 10 µg/ml)

B10: IV157 (VHH)
VHH: QVQLQQSGGGLVQPGGSLRLSCAASRSDISFNPMGWYRQAPGKQRELVATISNGGTTNYADSVKGRFTISQDNAKTTVYLQMNSLKPEDTAVYYCNGRGPRYATTGWYTDDYWGQGTQVTVSS
notes: yeast-produced
Q: Does B10 bind [3]?
A: no binding (tested: 10 µg/ml)

B11: IV156 (VHH)
VHH: QVQLQQSGGGLVQPGGSLRLSCAASRSGFSFNPMGWYRQAPGKQRELVATITSGGTTNYADSVKGRFTISTDNAKTTVFLQMNSLKPEDTAVYYCNGRGPRRGTAGWFTDDYWGQGTQVTVSS
notes: yeast-produced
Q: Does B11 bind [3]?
A: no binding (tested: 10 µg/ml)

B12: 1E4 (VHH)
VHH: EVQLVESGGGLVQAGGSLRLSCEASGRTFSSYGMGWFRQAPGKEREFVAAVSRLSGPRTVYADSVKGRFTISRDNAENTVYLQMNSLKPEDTAVYTCAAELTNRNPGAYYYTWAYDYWGQGTQVTVSS
Q: For B12, which “RSV neutralization IC50 (nM) (n = 2), Long” value [8] is on record?
A: 380 nM

Q: What about the “RSV neutralization IC50 (nM) (n = 2), A-2” value (F protein of RSV A-2) of the same binder?
A: 298 nM

B13: PMP20C1 (VHH)
VHH: EVQLVESGGGLVQAGGSLRLSCAASGRTFSSFAMGWFRQAPGKEREFVAAISWSGGSTYYADSVKGRFTISGDNAKNTMYLQMNSLKPEDTAVYYCAADSEILNSGAYYYPWAYVYWGQGTQVTVSS
Q: B13 was tested. Which “Binding RSV-A, Fold blanc” value [2] did it give?
A: 2.7 fold over blank

B14: PMP1B2 (VHH)
VHH: EVQLVESGGGLVQAGGSLRLSCAASGPTFSADTMGWFRQAPGKEREFVATIPWSGGIAYYSDSVKGRFTMSRDNAKNTVDLQMNSLKPEDTALYYCAGSSRIYIYSDSLSERSYDYWGQGTQVTVSS
Q: For B14, which “% Inhibition 101F Fab (1:100 PE)” value [4] is on record?
A: 82%

Q: What about the “% Inhibition 101F Fab (1:300 PE)” value [5] of the same binder?
A: 58%

Q: And the “Binding RSV-A, Fold blanc” value [6]?
A: 3.8 fold over blank

Q: And the “% Inhibition 101F Fab (1:1000 PE)” value [7]?
A: 25%

B15: IV144 (VHH)
VHH: QVQLQQSGGGLVQAGGSLRLSCAASGNIISFNPMGWHRQAPGKQRELVASITSGGSISYVDSVKGRFTISRDSAKNTIYLQMNSLKPEDTAVYFCAGEGPRRRGSTWYTDTYWGQGTQVTVSS
notes: yeast-produced
Q: Does B15 bind [3]?
A: no binding (tested: 10 µg/ml)

B16: PMP7B2 (VHH)
VHH: EVQLVESGGGLVQAGDSLRLSCAASGRTFSSYAMGWFRQAPGKEREFVAAISWSDGSTYYADSVKGRFTISRDNAKNTVYLQMNSLKPEDTAVYYCAADLTSTNPGSYIYIWAYDYWGQGTQVTVSS
Q: B16 was tested. Which “Binding RSV-A, Fold blanc” value [2] did it give?
A: 4.7 fold over blank

B17: PMP1A6 (VHH)
VHH: EVQLVESGGGLVQAGGSLRLSCAASGRTFSSYAMGWFRQAPGKEREFVAAIWWSGGSTYYADSVKGRFTMSRDNAKNTVYLEMNNLKPEDTAVYYCAADTDSSNSGSYLYTWAYDYWGQGTQVTVSS
Q: B17 was tested. Which “Binding RSV-A, Fold blanc” value [2] did it give?
A: 4.2 fold over blank

B18: PMP1E5 (VHH)
VHH: EVQLVESGGGLVQAGGSLRLSCEASGRTFSPIAMGWFRQAPGKEREFVAVVTRWSGARTVYADSVKGRFTISRDNAENTVYLQMNSLKPEDTAVYTCAADSTNRNSGAIYYTWAYDYWGQGTQVTVSS
Q: With B18 as the binder, how does the “Binding RSV-A, Fold blanc” value [2] read?
A: 3.4 fold over blank

B19: PMP1G3 (VHH)
VHH: EVQLVESGGGLVQAGGSLRLSCEASGRTYSRYGMGWFRQAPGKEREFVAAVSRLSGPRTVYADSVKGRFTISRDNAENTVYLQMNSLKPEDTAVYTCAAELTNRNSGAYYYAWAYDYWGQGTQVTVSS
Q: For B19, which “Binding RSV-A, Fold blanc” value [2] is on record?
A: 3.4 fold over blank

B20: PMP20B2 (VHH)
VHH: EVQLVESGGGLVQAGGSLRLSCEASGRTFSSYDMGWFRQAPGKEREFVAAVTRWSGARGVYADSVKGRFTISRDNAENTVHLQMNSLKPEDTAVYTCAADSTNRNSGAVYYTWAYDYWGQGTQVTVSS
Q: Which “Binding RSV-A, Fold blanc” value [2] does the source give for B20 here?
A: 3 fold over blank
